Source: the NTF2 design screens of Basanta et al. (2020)

test: protease stability score; higher = more stable; yeast display proteolysis, trypsin and chymotrypsin;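 further: log10 excess protease needed over predicted unfolded state with 0 meaning unfolded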

Sequence	protease stability score
DEELADKMRKWWQNVHQGNHDHIREMVDPNVKFQVGNKQYHGRETMSSLVVELKREITFRVDRMSASVHNGRLHVRLDIKYEVNGQPDRENLRIEANIHNGKIKSLSVQMDNEKLKKLHK	1.03
DEELADLAHKLLEAYHTGNPDDVVRNMDPNARQTIGDRTVHGRENIKKMLRKVLQEWRIDIHLRSYHLNGNQVKLSADFNLTVNGKPDEFTATIIVIQHNGKIHEVQLRMPEQDFREITS	1.05
DEELAHKIAKLMETNNFQDMAKQADENATAVVGDFKVRGRSQLETLMQRFLDQIDHFEVKSWHIDNGNVHVNFVASVNGRTIEAQVIIHVSNGRIKSIELRVRNQDVQKHLRNMLS	1.05
DEELAKHFERVVRENNPDELQKQFDEDARVSVGNKRYHGREKVNDAIKRFMTNADEIRIEDIEIHGETIKVVYRFRVDGQSARVVMVVNIKDGRVKEMKISATDPRDVKVLDEVME	1.7
DEELAKIVLRLLQAEENGDERTLQENADPNVTINVGEKRIRGMETYAKEVTERRKRMRVEVDVKDYRNHGEHVVIVNTRLNESNGKPHRNRMQFVIHAHNGRITKISDNTDS	-0.009
DEELAKKVLEKWVKVVDKGDDQAVKKLYKPNGTWINGDEETQGAEKVVKMMQKAQKKGDQFQVRKAKVEGNHVEFHYDLRIGDQTATFTVKVQVQGGRVEEVKVEVDKKAKEIITKG	0.06
DEELAKNLKEWWDVLKTGDTDRLKEMADPNAKFQIGDQTIHGMDRFVKEQVHHMQQMRFEIKVDSFSAHDGRIDIDAVQRVRVNGVPIDYTVKIRAEAHNGKWKSMELEIPENVVRELER	1.27
DEELDKRIVDALHAIQKGDERRLRQLFDKNVSFKVGDEEYHGMENYAKDQKRRRDKIRVQLQSVDAKHQGDRAHVDVQRELDINGRPRTVRMIVVAHAKNGRVKNMSMNVDPKEIRELDT	-0.159
DEELEDLASRIWKAIDHNNPDELKRNFDENVNAQVGDTTYHGMDDWAREIVHNLKEMRIHWSDMRVSKQGEQVRIKARFVTKHNGRPQNMRMTAVFEAHNGRVQDYKQNNRG	-0.27
DEELEDRWRKMLEARKTGDEDRIKENMDPNAELNVGDKTYHGHDKLAKTLVDEMRTIRVEYKKFSMDARGDTVEAKYRVIENHNGKPQEDTHRWSATNRGDKIQHVDVRSDK	-0.435
DEELEEQVKEFFHAIETGDEDKLRELADPNARFHVGEKNLHGMKDVAERIRREREHIRYTVQIDSIKADGNRAHVRVVAEKEHNGNPRHFVLNVEIVRHNGRIRKVEATEDK	0.938
DEELEHILKDILKAQKHNDEKRLEELFDPNVHFEVGDKRYNGMSRFAHELAQTQKEIKWRVQWQTWDVQGNKATMQAEAVFEVNGRPFRYTYQARVQVKNGKVKRHEIHVDPQQLRDQNS	-0.087
DEELEKHADTLFEAWNHNDPKTVMKMFDPNAHVDVGDHRFRGREDLHDKMSEIQEHARLRVDVKDVKAQGEKATVRFSIEINYNGKPTQDDVVQDMEVRNGRIKRLSYRTDK	-0.13
DEELERQFHEFLKALETNDPHRMRQLVDPNARIRVGDKRYHGMEEYAKDVVKKMEEARVSIDIKSIEVQGNHFVVEHEITRDQNGKPKTHRQRMFFTVKNGKVKEMQIEDQK	0.596
DEELFELLRELLKAEQTGDEERLSQLVDKDVSVKIGDHVIHGRDQFAKHASERHKQMDVKVRIDSYEVRGDQVEASMTVVHDHNGRPHKDTVTLQAKYDNGKIKEMRFDFDTTVLKKIES	0.609
DEELHEVVERLLQALRNGDPDQFKKNVDPNVKIVVGETQYHGREEAAHQLHQEHNNSSFQYVSVDVQVHGNKVVIDQRRRETQNGQPDSENFSEEAEAHNGKFKHIRQRSTK	-0.235
DEELHEWVKEYLKALQHNDPNQFKRLADPNVRYHVGDKEVHGREEWAKLVEKRRDSMRLEMKSVSIDAQGNKARVRLRFVEEHDGRPKEFEADFDFHVSNGKLVTVKVDEDQ	0.123
DEELHTIANEFNKALDRGDRKKLVDLADPNAQAVVGDQTLHGMEHVAHTIKKRQEEMRLDLKSVSVSVKGNNAILNFNALLHVNGKPVEISMRIILTVSNGKIQVIVEQFDPEQMRTARK	-0.289

Sequence	protease stability score
DEELIKLAHELLRVFRRGDEDRFRQLVDPNARLQVGDTTLHGRENLAHHLRQVREHIRVDIKIDSMTAKGNKVDIKAKMNLEHNGRPDEKTVNFNVDVHNGKVHQMSFDVDS	0.714
DEELITSANEMLQQLTTGNPQEIEKQADPNARVVVGDKTYTGMDQMARDRATEVQQIRRSFRIKTVQNQGDNANIHAEYEFNINGQPRTFELTLNVEAHNGKFVHIKYHLDPDHLNKLES	-0.078
DEELKERYERQEKAFENGDPDQAEDMMDPNVHVDVGNKELHGREEIVRDLHNVLQNWRFDRKVDSVNNRGDKLEVDAKQTLNVNGKPFHWHFTIVARAHNGKLKSQTVEMDPDTNRKIQS	-0.057
DEELKKQMDEALKARQNNDEQRLRDLFDPNVHIQVGDKVITGREEYAKRVVTTLRQLRFKYTVKSVKTKPNHIEIDVEVHNNRNGNPSNRKIVINMEADNGKISHLSVEHDG	0.585
DEELKKTATEFNKALNQNDEKRLKTLADPNATFVVGDEVIHGMDHVNKHQHDLKRNLRISIDVRDMKNSGPQAHVNAQVVFEIDGRPRQVEINYIITYHNGKVKKVRVDMDPEQLKEIKK	1.08
DEELKKVVDRMMKAITEGNPDKVRHLMDKDVKVDIGDKRIQGNEQNARDNEKSQNHLEESLDVKRVDNKGDKATVHLTVHVNHNGKPETFKLDIHVQAHNGKVKNMNFQKRP	-0.076
DEELKKWFHHWVRAMERGDEQELRNQADPNAKFKIGDKTYHGMDEFARQVVQELRHLRVHIRFKRVRNEPGRLSVDATVVREHNGKPDSYRQKASATYHNGKLTNMTINKDK	0.735
DEELLELFERWVDAVHNNDKEQLKRLMDPNVKFQIGDKRWEGREKLVKDIADEQRQIRVRYRVDTMDATNGRADVHAKVEIEVNGKPISFRVRVFMEVHNGKVKSIVWNIPEDDMKKLQK	1.63
DEELLELVRRWITAVRTNDPKQLEKNFDPNAKFEYGDKSVRGKEQVVREQEKQVQEIRFSYRISDFRVDNGRVEMEVKVHEKHNGRPDTKTVKWKAEMSNGRLVWMRMQKRQ	0.412
DEELLERIKRIMHSGNFTELANQMDKDAKIIIGDKVLHGREQVEEWYDHLEREVDHVEVHTMTIHNGHLTVHMRMTINGKTFKVIMVIEVHNGRVKRVEVRVTDPNVQKWLKSILQ	1.26
DEELLHRIRDFLRAVRHGDSDHLRQLMDEDVKMTVGDHEIHGRERILDKIKQTRDEQRIHIQVRSMHADGDKATVHADIENEHNGQPQTAKLRMTVQVENGRIKQIDVEIKQ	0.904
DEELLKELLKYLKVREHGDKDKFERMADPNAKIHVGDREVHGREHLAKEIKTEKEEMEVSVDRYTQRVNGDKARLKVDFKVEHNGKPERRAHVLVMHTHNGKIKSLKAQDTD	-0.111
DEELLKEWETLVEDNNEQDLSKMADEDARVNVGDKHYHGRENVEKFITTLAQRIDRIDIKTVDNDGEKVRIDMIAKFNGHQLRVVLEMQAHNGRVKVINARATNEDQEKLWKDLVD	0.798
DEELLKIAKQFFEAEQNGDEDELKEQMDPNANLEYGDRTVHGRENIARWVSRVLREARIDFKEISVQDHNGRAKIHVRFVIDVNGRPNRMTRIVVVEQHNGRIKYLNIRMSEEQLKKLKE	0.132
DEELLRNLEEVFKKNNFSTLANLADKDATLIVGDKVYKGKQQVRDWANELDERIDHVSIHSIDNQGDTMVARMVLNVDGVNAEFTLSVEISNGRVQVISLKVTDDEVKDQISKMES	0.953
DEELMKTVHDLYSNLRQNDEHKFDELVDPNASLRVGDKRLHGREQIHDELKRQNEEIHVSRQMKEMTVHNGRADVNIRASETHNGQPDEFTIDATFELHNGRFISIDIKKRP	-0.529
DEELNHQVHSFIKNVRQGNPKEAVKQADPNVRVQVGNKVINGRENMEKWYREMKREMRIVIKVDRIRAHNGRAEATYKVEYDVNGKPYTNTNSMHVEAHNGRIVSIYEDFDETHLREVQS	-0.367
